Read-outs that look alike come from different tables or passages of the source.
What was measured:
[1] = target: BKPyV VP1 pentameric core (residues 26-297) (BK polyomavirus (BKPyV)) (UniProt P03088); experiment: crystal structure
[2] = target: 319C07 (Potravitug), human IgG monoclonal antibody (human); experiment: BLI
[3] = target: BKPyV VP1 pentamer, genotype III-AS (M23122), ALFA-tagged (BK polyomavirus (BKPyV), strain AS, UniProt P14996); experiment: BLI
[4] = target: T1, BKPyV VP1 pentameric core (residues 26-297) (BK polyomavirus, strain ; …, UniProt P03088); experiment: crystal structure
[5] = target: T1, BKPyV VP1 pentameric core (residues …); experiment: crystal structure; remark: listed apart in the source
[6] = target: T1, BKPyV VP1 pentameric core (residues …); experiment: crystal structure; remark: listed apart in the source

Molecule: BKPyV VP1 pentameric core (residues 26-297) (from UniProt P03088 26-297) (domain or fragment)
- stoichiometry N [1]: 5

Molecule: BKPyV VP1 single-point mutant K69N in the Dunlop background (from UniProt P03088 1-362) (natural protein)
- Kd [2]: 4.5 µM
- fold reduction of affinity against the Dunlop background [2]: > 1000 fold

B1: 319C07 (Potravitug), human IgG monoclonal antibody (antibody, V domains shown)
VH: QVQLQQWGAGLLKPSETLSLTCAVYRGSFSAYYWTWFRQPPGKGLEWIGEINHRGYTNYNPSLRGRVSISVDTSKKQFSLKLRSVNAADTAVYYCATLRSTSGWHDYFDYWGQGTLVTVSS
VL: EIVLTQSPGTLSLSPGERATLSCRASQSVSSSYLAWYQQTPGQAPRLLIYGASSRATGIPDRFSGSGSGTDFTLTISRLEPEDFVVYFCLQYGSSPLTFGPGTKVDIK
- binding result [3]: binds

B2: Potravitug single-chain variable fragment (scFv-319C07) (scFv, V domains shown)
VH: QVQLQQWGAGLLKPSETLSLTCAVYRGSFSAYYWTWFRQPPGKGLEWIGEINHRGYTNYNPSLRGRVSISVDTSKKQFSLKLRSVNAADTAVYYCATLRSTSGWHDYFDYWGQGTLVTVSS
VL: EIVLTQSPGTLSLSPGERATLSCRASQSVSSSYLAWYQQTPGQAPRLLIYGASSRATGIPDRFSGSGSGTDFTLTISRLEPEDFVVYFCLQYGSSPLTFGPGTKVDIK
- stoichiometry N [4]: 3 scFv per VP1 pentamer

B3: ORT-VHH17 (VHH)
VHH: EVQLVESGGGLVQAGGSLRLSCAASGRDLSNYDMGWFRQAPGKEREFVATIKWRSGGTNHAESVKGRFTISRDNAKNTVYLQMSSLKPEDTAVYYCAAAPNWLGYSFKVDDYIYWGQGTQVTVSS
- stoichiometry N [5]: 1 nanobody per VP1 monomer

B4: ORT-VHH16 (VHH)
VHH: EVQLVESGGGLVQAGGSLRLSCAASGRTFDHYAMGWFRQAPGKERELVARISSGGGTTNYADSVKGRFTISRDNAKNTVSLQMNSLKPEDTAVYYCVGEIQYGTRYYWGQGTQVTVSS
- stoichiometry N [6]: 1 nanobody per VP1 monomer

Source: article doi:10.1101/2025.08.09.669497 (bioRxiv, 2025)
